Assay results published in the supplement of paper PMC12042874.
± gives the uncertainty stated by the source.

Test: amyloid nucleation score (Sup35N fusion, yeast selection) (log enrichment); library NNK1; higher = more nucleation; inactive = no reads after selection
How it was run: (§1)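 The nucleation score equals the log enrichment of output over input reads from DiMSum, centred on the mode score of non-aggregating sequences. It was computed only for sequences with 100 or more input reads. The reads came from Illumina sequencing of plasmid inserts from psi-negative yeast expressing Sup35N fused to peptides of 20 random codons, induced with 100 μM copper sulfate for 24 hours and grown 7 days at 30°C without adenine and uracil.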

Substance	amyloid nucleation score
AADGGYCRCGNDRKCLYAFR	inactive
AAFSDPRNRLMKPVELKHAL	1.31 ± 0.9
AAVGALGKSRSL	1.17 ± 0.73
ACQGWGTWEELGHDERTDLV	0.817 ± 0.41
ACQLLMCLCFFETKGLYLDG	7.603 ± 0.053
ACTGARCVRDQ	0.452 ± 0.45
ACTSLASFHYVLHPKYSCRV	1.2 ± 0.76
ADANCFRGWSRHHRTITQLR	0.296 ± 0.64
ADDYCQPGKIGVNNGPHRKR	-0.657 ± 1.7
ADYVKMNRDFRVGTTYDMST	1.18 ± 0.65
AESSPSVG	0.271 ± 0.57
AEWVYITMGYAWLKRSNVVE	0.092 ± 0.33
AFFNCPSTNTVWQRFNANRF	1.72 ± 0.14
AFFVAVCASWFPGLYRY	0.298 ± 0.23
AFLCESFSLVWYWLLWEWRW	-0.126 ± 0.77
AFNGVSNLEWL	-0.18 ± 1.7
AFRQVRKIVQAGTGGVQ	-0.324 ± 0.58
AFRRRGSVPRGRASPHIFVV	7.948 ± 0.065
AFSYRGGVMRSSFEMLTYVS	-0.906 ± 0.61
AFYLLF	-0.395 ± 0.51
AGCVPMGEGLGTLESNYSKY	0.637 ± 0.52
AGFQFSIDYR	0.259 ± 0.51
AGIKIGKEKGCHNYRFWWTV	0.124 ± 0.5
AGNRTVYWMLTSVSTSG	0.64 ± 0.75

Substance	amyloid nucleation score
AGRIETIEIGSSCLSVCGGY	0.328 ± 0.58
AGRSNF	-0.062 ± 1.2
AGSNSFIFFLVRFFVRALGR	-0.67 ± 0.34
AHFHPLEVRFTIHDFLADNL	-0.215 ± 0.5
AIASVLAN	-0.482 ± 0.3
AIDRRLYMGYSSWNEQDCEV	inactive
AIGCVWVRNRVAIVGERVAK	2.08 ± 0.23
AIIDMDMSFRSGGCTNGVDV	1.06 ± 0.32
AIKCHL	-0.721 ± 1.9
AINSSFWSVGLILEIDMYSY	-0.148 ± 0.45
AIQYILEQLEQSRRWGISVH	inactive
AISTCQKRVYFWVQSGFVT	-0.072 ± 0.2
AIVELLSWSQVTCALWGSIT	0.344 ± 0.69
AIYMLHRNGGGGVCEAEAVR	-0.38 ± 0.69
AIYVRW	1.08 ± 0.22
AKCAVASAIKVQQDDADGPD	-0.012 ± 0.52
AKLYMCSCINCTASHEITYF	8.419 ± 0.045
AKRLWIQLRGVHSRMLTGYY	-0.244 ± 1.5
AKSQYMVVVYMPIYLWQCYI	4.01 ± 0.14
ALAWWVLFL	0.132 ± 1
ALCDYWDIA	inactive
ALETFNGQVMSPSSRLRIDR	-1.07 ± 0.88
ALFCDDEYRRDYW	0.192 ± 0.31
ALFCSTIRNQIGFIRHPESF	0.026 ± 0.58

Substance	amyloid nucleation score
ALFESRPYTLSRERDKL	-0.302 ± 0.36
ALMNNGWYILSNFPYCMVIY	5.4 ± 0.064
AMGSDDE	-0.338 ± 1.3
ANALDCINDWDKSSQSCQGP	0.812 ± 0.53
ANLLINGFLSRSRDNYACYR	1.56 ± 0.18
ANRHRNRRSSSRDVFMFVIC	3.02 ± 0.19
ANRYRVLKE	3.88 ± 0.095
ANSYARCYNLVWKLV	-0.291 ± 0.66
ANYFQSICQFDVDRIKLNSA	inactive
APLALSGRVCFWSWFCPLFV	5.76 ± 0.084
APMYDDLDATMVELEGP	0.254 ± 1.2
APNFLMCNRPGIF	3.02 ± 0.086
APNTEMGFEGLRELQVLPVV	-0.854 ± 1.1
APRHDCMSSDLQVVKMDFLL	0.799 ± 0.41
ARAGWRSYYRGHLCSESANE	0.273 ± 0.65
ARFMSLTRSSACETNVGVYL	0.608 ± 0.32
ARTMKDYPLRTYVYYAPAGY	0.453 ± 0.75
ARWGFTWVKA	0.372 ± 1.4
ARYYLLFAFDNNFCIGVVGS	4.23 ± 0.099
ASFYPKPS	0.4 ± 1.1
ASGLMLFIMPFRWGWNSVFT	0.683 ± 0.42
ASKKNIF	-0.304 ± 0.79
ASNYR	0.008 ± 0.88
ASPVLFKWICPIYTS	2.87 ± 0.15

Substance	amyloid nucleation score
ASRILV	-0.552 ± 0.6
ASTMFQIYVHPNYTISLMLK	0.44 ± 0.28
ASVVSCQQSYLRWQEIL	-0.316 ± 0.74
ASVYQRWPSFYRRLFVFNVI	0.358 ± 0.55
ATQLAFSMILSAAVYFLKVV	-1.33 ± 1.7
AVCIYRHRLVTGSWWLSIS	0.359 ± 0.39
AVFGRLMVVDVYVSRSALTS	0.043 ± 0.94
AVFLMFRYASFTYWM	0.444 ± 1.2
AVIFVVLKMSFSISECDDEW	inactive
AVRTAFLAAHM	-0.64 ± 0.98
AVSLFAGDQFDDTTRSAQGI	-0.306 ± 0.74
AVSVWYYSRVRGRG	0.025 ± 0.46
AVVHSRYRVSVCGDQDLSPL	-0.086 ± 0.41
AVYMLSMCPFEYAYKRCVCG	-1.16 ± 1.7
AWAVGFYPFCRMFRSLYNYW	0.387 ± 0.98
AWDYNKN	5.69 ± 0.075
AWNRYIFIPTLEFTVLCMWC	6.139 ± 0.058
AYASFDGDPEGRGFTSSKGD	inactive
AYAVVGAM	0.604 ± 0.69
AYFYNEKNCYSHGKYVPYSF	-0.797 ± 1.7
AYICYLILFQSQRVW	-0.827 ± 1.7
AYLVPGQYVSPSFRFLTKNE	0.215 ± 0.68
AYTCHYQGGGLVNLVDVGYG	0.353 ± 0.69
AYWGHITGKVKFMEAAPLDV	1.63 ± 0.73

Substance	amyloid nucleation score
CASWTCAEKAEHTMYMEDYP	0.02 ± 0.36
CCDSPSRRSRAKECRMKYSM	-1.32 ± 1.2
CCHAYRFGWNASVLRCGICL	-0.444 ± 1.9
CCLVLSFLCNMEDSRNGG	6.363 ± 0.056
CCNGRLIIGNSNGNESYLSK	-0.384 ± 0.37
CCRGCPERLLSWGGSPRATE	-0.334 ± 0.39
CCSPAPLSLVIIVATVGVAS	2.04 ± 0.19
CCVGRALCHNVVS	0.594 ± 0.55
CCVGWCFPACLLFST	7.42 ± 0.079
CCYNFYDSGANCHLFFVSFR	-0.817 ± 1.7
CDLFDFCISSKCRFKFLGRM	-0.131 ± 0.9
CDNLRCRGLGDWCAWQPLTS	0.335 ± 0.65
CDNQVSGLNGS	inactive
CDWYDQMREVGESYVALSYN	-0.386 ± 0.48
CEAFADTSSSYRDFYLQHQL	-1.44 ± 1.2
CELRTD	inactive
CELSDSVNGNTFNMN	2.18 ± 0.49
CFCFLRFYRLQPNAQLDSKS	1.69 ± 0.31
CFGASNSLLFVDSSAWGSSG	-0.242 ± 0.5
CFIRLNNWLF	1.59 ± 0.46
CFNMYLDVFDRVCRM	1.85 ± 0.13
CFVFLFFVPLWSRNRGEYMY	-0.937 ± 0.68
CFVGMMKRFR	1.36 ± 0.4
CFYFMECLV	-0.254 ± 0.59

Substance	amyloid nucleation score
CGFSDNGTCKND	-0.059 ± 0.28
CGGFGMIFYL	3.03 ± 0.11
CGNLVCCNIMTDKNGY	7.886 ± 0.055
CGRVDEFKALLYKILRDYNW	-0.141 ± 0.23
CGYLCNGKSGERSGIFGAHQ	-0.088 ± 0.39
CGYSKVPMPCALAECGGRPR	0.054 ± 0.45
CHELLALDLLSMRNS	0.416 ± 0.55
CHNVVLFVVTQSMCEVSGGW	inactive
CHVSLYRMDIGLQYRTGRIW	0.645 ± 0.52
CHYFMNTLIV	inactive
CIDFKSSGAGSTMSWNLVFN	-0.188 ± 0.48
CIDYLRSDC	1.2 ± 0.53
CIFAYKCSIYERESL	0.776 ± 0.49
CIGWSNGAPRCNQGRQRDRG	0.828 ± 0.66
CIYSICYFCNS	7.924 ± 0.043
CKVQLSQDRAVECGVNHGVY	-0.01 ± 0.44
CLCSYYKILVYSSLVLDNAY	0.58 ± 0.45
CLCVGDDGGADWNKVRVITS	0.18 ± 0.61
CLETRYL	1.15 ± 0.54
CLFLDWMPM	0.548 ± 0.84
CLFLLNVGLSLLIGLPRYMW	0.552 ± 0.91

Test: amyloid nucleation score (Sup35N fusion, yeast selection) (log enrichment); library NNK2; higher = more nucleation; inactive = no reads after selection
How it was run: as §1

Substance	amyloid nucleation score
YVMTFYTFTTIGGPGPWYGL	inactive
YVNDIRSKNPALEHEGDL	-0.58 ± 0.55
YVNFIVFTDMIWDS	4.94 ± 0.09
YVQSVHFSSMILQINPGSFN	4.94 ± 0.065
YVRGSDGSKKPWVYSAVGIF	-0.793 ± 1.1
YVTCRCRYYLSFVIPIFWKR	-0.657 ± 0.25
YVWRYVRPLVLAIDCVVAR	0.001 ± 0.42
YVYEIDYSRFQFCARWVGWA	0.597 ± 0.48
YWCFAI	-0.349 ± 0.26
YWFFNWEWSGLVVYVGRFSA	inactive
YWFKSFSWFPVNIVIYNMEK	5 ± 0.094
YWGIRVCSDFGIPEFRTS	2.05 ± 0.12
YWKVCRM	0.356 ± 0.74
YWSRRAYCFCSAFFYNTGFF	1.53 ± 0.19
YWTNPYEMFISHYNKVFAFF	-0.436 ± 1.1
YYAGLVTSDWNTRSLGGMCE	-0.506 ± 1
YYDFVVNGGDGLSIEYNSRG	0.405 ± 0.74
YYFFCVNGGHDMGAILNMLW	6.94 ± 0.086
YYFNVLFSCYEEWFMFSSTS	inactive
YYICDLLHSRCEVKLD	-0.551 ± 0.37
YYLTT	-1.6 ± 1
YYQEHQTRLWIWSQHGLNAI	0.864 ± 0.19
YYQSIGLQYSRMKMGCKRND	0.882 ± 0.18
YYSFSGRATWGRNKSFMWVA	0.089 ± 1.1
YYTWCYKKVFGNHWRQDFD	-1.23 ± 0.64
YYVHQTHVSCLLAVLCPSLK	8.901 ± 0.039
YYVSSVLWIRYYQGNRTRSW	-0.901 ± 0.44
